T1: CmoM (Escherichia coli (ASKA library clone), UniProt P36566 1-261)
T1 sequence: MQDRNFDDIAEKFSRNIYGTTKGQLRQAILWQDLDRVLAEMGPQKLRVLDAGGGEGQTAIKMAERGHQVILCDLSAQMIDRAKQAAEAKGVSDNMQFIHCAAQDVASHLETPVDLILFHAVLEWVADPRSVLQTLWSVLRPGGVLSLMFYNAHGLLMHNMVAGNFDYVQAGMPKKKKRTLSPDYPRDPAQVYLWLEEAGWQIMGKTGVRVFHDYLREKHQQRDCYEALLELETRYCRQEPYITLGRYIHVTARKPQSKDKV


What was measured:
CmoM = target: T1, CmoM; assay: X-ray crystallography (2.22 A); sinefungin (3 mM); Mg2+ (0.04 M magnesium acetate in reservoir); Crystallization: CmoM:tRNA 1:4 molar ratio, 3 mM sinefungin; reservoir 0.04 M Mg acetate, 0.05 M Na cacodylate pH 6.0, 30% MPD, 25 C; protein in 25 mM HEPES pH; conditions: protein: recombinant; tags: His tag (ASKA pCA24N vector; HisTrap purified); tRNA fold with 16-nt variable arm
[1] = target: the molecule itself; assay: SEC; Superdex 75 column, 100 ug wild-type CmoM, 25 mM HEPES pH 7.5, 150 mM NaCl, 0.5 ml/min; ovalbumin (44 kDa) and MnmC (76 kDa) run for comparison

Binder | binding result (CmoM) | stoichiometry N [1]
tRNASer1(cmo5UGA) (structured_RNA, cmo5U34; i6A37 (partly ms2i6A37); other native tRNA modifications) RNA: GGAAGUGUGGCCGAGCGGUUGAAGGCACCGGUCUUGAAAACCGGCGACCCGAAAGGGUUCCAGAGUUCGAAUCUCUGCGCUUCCGCCA | binds | 
Escherichia coli CmoM (wild type, recombinant) (enzyme, E. coli, CmoM, SAM-dependent tRNA cmo5U34 methyltransferase of E. coli; cmoM gene on pCA24N from the ASKA library; calculated monomer molecular weight 31.7 kDa; 257 protein residues modelled in the crystal structure; also called E. coli CmoM; source: E. coli BL21 (DE3), purified (HisTrap HP Ni2+ column); not shown: His tag (inferred from the HisTrap Ni2+ purification)) QDRNFDDIAEKFSRNIYGTTKGQLRQAILWQDLDRVLAEMGPQKLRVLDAGGGEGQTAIKMAERGHQVILCDLSAQMIDRAKQAAEAKGVSDNMQFIHCAAQDVASHLETPVDLILFHAVLEWVADPRSVLQTLWSVLRPGGVLSLMFYNAHGLLMHNMVAGNFDYVQAGMPKKKKRTLSPDYPRDPAQVYLWLEEAGWQIMGKTGVRVFHDYLREKHQQRDCYEALLELETRYCRQEPYITLGRYIHVTARKPQSKDKV |  | 2
